According to paper PMC9960230:

Key:
Conditions in all cases: domain or fragment
[1] = molecular target: Recombinant human FcRn conjugated with biotin (human) (UniProt P55899); assay: SPR; native Fc, pH 5.4
[2] = molecular target: Recombinant human FcRn conjugated with biotin (human) (UniProt P55899); assay: SPR; heme-ox-exposed Fc, pH 5.4
[3] = molecular target: Recombinant human FcRn conjugated with biotin (human) (UniProt P55899); assay: SPR; heme (Fe3+)-exposed Fc, pH 5.4

Sequence of Recombinant human FcRn conjugated with biotin (human) (P55899 24-297): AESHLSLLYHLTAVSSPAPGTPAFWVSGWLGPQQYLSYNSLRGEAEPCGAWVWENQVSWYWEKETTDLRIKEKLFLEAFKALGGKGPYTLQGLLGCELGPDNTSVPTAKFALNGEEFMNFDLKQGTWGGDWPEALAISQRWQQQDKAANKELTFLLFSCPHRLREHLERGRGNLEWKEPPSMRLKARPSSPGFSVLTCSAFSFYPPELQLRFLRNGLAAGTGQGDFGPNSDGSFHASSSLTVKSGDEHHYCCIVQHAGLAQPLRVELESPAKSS

Kd [1]: 9.1 nM
koff [1]: 0.00415 s⁻¹
Kd [2]: 8 nM
koff [2]: 0.00367 s⁻¹
Kd [3]: 7.7 nM
koff [3]: 0.004 s⁻¹
Substance: Fc-γ fragments obtained by papain digestion of polyclonal human IgG
